Assay [1] concerns the target T1, FcγRIa extracellular domain with C-terminal His tag (human, UniProt P12314 16-292).
T1 construct: extracellular domain; Soluble receptor expressed in FreeStyle293 cells, used as analyte in Biacore; also called FcgRI; CD64; not shown: His tag at the C terminus
Briefly: SPR (Biacore), antibody captured via antigen peptide, FcγR as analyte; binding relative to GpH7-A5/GpH7-B3/GpL16-k0 = 100.

The target of assay [2] is T2, FcγRIIb extracellular domain with C-terminal His tag (human, UniProt P31994 43-217).
T2 construct: extracellular domain; Soluble receptor expressed in FreeStyle293 cells, used as analyte in Biacore; also called FcgRIIb; CD32B; not shown: His tag at the C terminus
T2 sequence (looked up): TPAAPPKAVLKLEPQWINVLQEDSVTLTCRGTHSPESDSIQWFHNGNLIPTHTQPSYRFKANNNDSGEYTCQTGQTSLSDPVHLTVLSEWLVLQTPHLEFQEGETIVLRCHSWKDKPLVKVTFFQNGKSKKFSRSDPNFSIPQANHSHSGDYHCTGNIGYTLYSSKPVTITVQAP
Described as above.

The target in assay [3] is T3, FcγRIIIa extracellular domain with C-terminal His tag (human, UniProt P08637 17-208).
T3 construct: extracellular domain; also called FcgRIIIa; 3a; not shown: His tag at the C terminus
T3 sequence (P08637 17-208): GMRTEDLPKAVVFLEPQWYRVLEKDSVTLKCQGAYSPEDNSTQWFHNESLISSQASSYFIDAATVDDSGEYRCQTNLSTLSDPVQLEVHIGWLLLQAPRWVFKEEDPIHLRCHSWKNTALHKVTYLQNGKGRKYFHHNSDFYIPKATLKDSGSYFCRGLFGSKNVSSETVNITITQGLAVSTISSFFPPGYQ
Put plainly: SPR (Biacore), antibody captured on antigen peptide chip, FcγR as analyte; relative binding amount. On the procedure:
(§1) Analysis of interaction between objective antibody and the FcγR was carried out using Biacore T100 (GE Healthcare). HBS-EP+ (GE Healthcare) was used as the running buffer, and the measurement temperature was set to 25° C. Chips produced by immobilizing the antigen peptide by the amine coupling method to a Series S Sencor Chip CM5 (GE Healthcare), or alternatively, chips produced by allowing preliminarily biotinylated antigen peptides to interact with and immobilize onto a Series S Sensor Chip SA (certified) (GE Healthcare) were used. Antibodies of interest were captured onto an antigen peptide-immobilized chip, and allowed to interact to each FcγR diluted with running buffer. To regenerate and repeatedly use the chip, the antibodies captured on the chip were washed off by reacting 10 mM glycine-HCl, pH 1.5.
(§2) The FcγR-binding activity of each antibody was assessed primarily using as an indicator the FcγR-binding activity and dissociation constant for FcγR.
(In general: Surface plasmon resonance follows binding to a sensor surface in real time, without labels.)

The target in assay [4] is T4, FcγRIIb extracellular domain with C-terminal His tag (human, UniProt P31994 43-217).
T4 construct: extracellular domain; also called FcgRIIb; 2b; not shown: His tag at the C terminus
T4 sequence (looked up): T2 sequence (looked up)
Described as above. On the procedure:
as §1, §2

The target in assay [5] is T5, FcγRIIa H (FcγRIIa type H, His at position 131), extracellular domain with C-terminal His tag (human, UniProt P12318 34-217).
T5 construct: extracellular domain; also called 2aH; FcgRIIa H; not shown: His tag at the C terminus
T5 sequence (looked up): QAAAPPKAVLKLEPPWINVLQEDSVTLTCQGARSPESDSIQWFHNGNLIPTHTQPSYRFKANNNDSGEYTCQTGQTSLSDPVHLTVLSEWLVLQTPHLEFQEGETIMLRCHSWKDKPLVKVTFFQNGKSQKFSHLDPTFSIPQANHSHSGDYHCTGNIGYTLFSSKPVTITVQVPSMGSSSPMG
Put plainly: SPR (Biacore), antibody captured on antigen-peptide chip, FcγR as analyte; GpH7-A5/GpH7-B3/GpL16-k0 = 100. As to the method:
(§3) The heterodimerized antibodies He Abs in which one of the H chains was introduced with an alteration were assayed for their binding activities to each activating FcγR and inhibitory FcγR according to the method described in Example 4. […] The activating FcγRs in FIGS. 26, 27, 28, and 29 are FcγRIa, FcγRIIa (R), FcγRIIa (H), and FcγRIIIa, respectively.
as §1

The target in assay [6] is T6, FcγRIIb, extracellular domain with C-terminal His tag (human, UniProt P31994 43-217).
T6 construct: extracellular domain; also called 2b; FcgRIIb; not shown: His tag at the C terminus
T6 sequence (looked up): T2 sequence (looked up)
The assay is described as above. On the procedure:
as §3, §1

T1 sequence (P12314 16-292): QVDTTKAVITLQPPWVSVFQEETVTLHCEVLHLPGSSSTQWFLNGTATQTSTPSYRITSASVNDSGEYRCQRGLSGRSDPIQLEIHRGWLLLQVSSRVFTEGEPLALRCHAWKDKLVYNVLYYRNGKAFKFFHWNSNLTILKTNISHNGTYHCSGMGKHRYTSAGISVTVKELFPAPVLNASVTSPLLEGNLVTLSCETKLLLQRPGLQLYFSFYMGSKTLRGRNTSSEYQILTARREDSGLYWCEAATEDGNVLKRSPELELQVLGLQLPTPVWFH

B1: GpH7-A5/GpH7-B3 variant P271_06M/GpL16-k0 (antibody, human IgG1, kappa)
heavy 1: not shown
heavy 2: not shown
light: DIVMTQSPLSLPVTPGEPASISCQASESLVHSNRNTYLHWYLQKPGQSPQLLIYKVSNRFSGVPDRFSGSGSGTDFTLKISRVEAEDVGVYYCSQNTHVPPTFGQGTKVEIERTVAAPSVFIFPPSDEQLKSGTASVVCLLNNFYPREAKVQWKVDNALQSGNSQESVTEQDSKDSTYSLSSTLTLSKADYEKHKVYACEVTHQGLSSPVTKSFNRGEC
notes: Heterodimerized anti-glypican-3 IgG1; substitution in only one H chain; also called P271M; He Ab
As to B1, the He/Con_1a in assay [1] is 102 % of control (GpH7-A5/GpH7-B3/GpL16-k0 = 100). In addition, in assay [2], the He/Con_2b is 77.5 % of control (GpH7-A5/GpH7-B3/GpL16-k0 = 100).

B2: GpH7-A5/GpH7-B3 variant H268_05P/GpL16-k0 (antibody, human IgG1, kappa)
heavy 1: not shown
heavy 2: not shown
light: B1 light
notes: Heterodimerized anti-glypican-3 IgG1; the substitution stands in the GpH7-B3 chain only; also called He Ab
As to B2, the He/Con_3a in assay [3] is 76.4 % of GpH7-A5/GpH7-B3/GpL16-k0 (=100). The He/Con_2b in assay [4] is 116 % of GpH7-A5/GpH7-B3/GpL16-k0 (=100).

B3: GpH7-A5/GpH7-B3 variant P271_07I/GpL16-k0 (antibody, human IgG1, kappa)
heavy 1: not shown
heavy 2: not shown
light: B1 light
notes: Heterodimerized anti-glypican-3 IgG1; substitution in only one H chain; also called P271I; He Ab
Regarding B3, the He/Con_1a in assay [1] is 102 % of control (GpH7-A5/GpH7-B3/GpL16-k0 = 100). In assay [2], the He/Con_2b was 76.8 % of control (GpH7-A5/GpH7-B3/GpL16-k0 = 100).

B4: GpH7-A5/GpH7-B3 variant P271_09D/GpL16-k0 (antibody, human IgG1, kappa)
heavy 1: not shown
heavy 2: not shown
light: B1 light
notes: Heterodimerized IgG1 (He Ab); mutation only in the GpH7-B3 chain; also called He Ab P271D
Regarding B4, in assay [5], the “He/Con_2aH (relative binding activity)” value was 70.1 % of control. For the same molecule, the “He/Con_2b (relative binding activity)” value in assay [6] was 120 % of control.

B5: GpH7-A5/GpH7-B3 variant S267_19Q/GpL16-k0 (antibody, human IgG1, kappa)
heavy 1: not shown
heavy 2: not shown
light: B1 light
notes: as for B2
For B5, the He/Con_3a in assay [3] was 65 % of GpH7-A5/GpH7-B3/GpL16-k0 (=100). Also, the He/Con_2b in assay [4] is 218 % of GpH7-A5/GpH7-B3/GpL16-k0 (=100).

B6: GpH7-A5/GpH7-B3 variant P271_08L/GpL16-k0 (antibody, human IgG1, kappa)
heavy 1: not shown
heavy 2: not shown
light: B1 light
notes: Heterodimerized IgG1 (He Ab); mutation only in the GpH7-B3 chain; also called He Ab P271L
As for B6, the “He/Con_2aH (relative binding activity)” value in assay [5] is 86.7 % of control. Besides, the “He/Con_2b (relative binding activity)” value in assay [6] is 103 % of control.

B7: GpH7-A5/GpH7-B3 variant Y300_19Q/GpL16-k0 (antibody, human IgG1, kappa)
heavy 1: not shown
heavy 2: not shown
light: B1 light
notes: Heterodimerized IgG1 (He Ab); mutation only in the GpH7-B3 chain; also called He Ab Y300Q
As to B7, the “He/Con_2aH (relative binding activity)” value in assay [5] was 96.1 % of control. In addition, the “He/Con_2b (relative binding activity)” value in assay [6] was 108 % of control.

B8: GpH7-A5/GpH7-B3 variant H268_15Y/GpL16-k0 (antibody, human IgG1, kappa)
heavy 1: not shown
heavy 2: not shown
light: B1 light
notes: as for B2
B8: the He/Con_3a in assay [3] is 97.5 % of GpH7-A5/GpH7-B3/GpL16-k0 (=100). Besides, the He/Con_2b in assay [4] was 106 % of GpH7-A5/GpH7-B3/GpL16-k0 (=100).

B9: GpH7-A5/GpH7-B3 variant P271_11K/GpL16-k0 (antibody, human IgG1, kappa)
heavy 1: not shown
heavy 2: not shown
light: B1 light
notes: Heterodimerized anti-glypican-3 IgG1; substitution in only one H chain; also called P271K; He Ab
In the case of B9, the He/Con_1a in assay [1] is 103 % of control (GpH7-A5/GpH7-B3/GpL16-k0 = 100). Also, the He/Con_2b in assay [2] is 90.2 % of control (GpH7-A5/GpH7-B3/GpL16-k0 = 100).

B10: GpH7-A5/GpH7-B3 variant N325_01G/GpL16-k0 (antibody, human IgG1, kappa)
heavy 1: not shown
heavy 2: not shown
light: B1 light
notes: as for B2
On to B10, for which the He/Con_3a in assay [3] was 28 % of GpH7-A5/GpH7-B3/GpL16-k0 (=100). Besides, in assay [4], the He/Con_2b was 101 % of GpH7-A5/GpH7-B3/GpL16-k0 (=100).

B11: GpH7-A5/GpH7-B3 variant S298_06M/GpL16-k0 (antibody, human IgG1, kappa)
heavy 1: not shown
heavy 2: not shown
light: B1 light
notes: Heterodimerized IgG1 (He Ab); mutation only in the GpH7-B3 chain; also called He Ab S298M
Regarding B11, in assay [5], the “He/Con_2aH (relative binding activity)” value was 98.1 % of control. The “He/Con_2b (relative binding activity)” value in assay [6] is 102 % of control.

B12: GpH7-A5/GpH7-B3 variant K326_16H/GpL16-k0 (antibody, human IgG1, kappa)
heavy 1: not shown
heavy 2: not shown
light: B1 light
notes: as for B2
B12: the He/Con_3a in assay [3] was 96.1 % of GpH7-A5/GpH7-B3/GpL16-k0 (=100). Moreover, the He/Con_2b in assay [4] was 119 % of GpH7-A5/GpH7-B3/GpL16-k0 (=100).

B13: GpH7-A5/GpH7-B3 variant H268_20W/GpL16-k0 (antibody, human IgG1, kappa)
heavy 1: not shown
heavy 2: not shown
light: B1 light
notes: as for B2
B13: in assay [3], the He/Con_3a is 82.8 % of GpH7-A5/GpH7-B3/GpL16-k0 (=100). In assay [4], the He/Con_2b was 111 % of GpH7-A5/GpH7-B3/GpL16-k0 (=100).

B14: GpH7-A5/GpH7-B3 variant Y296_20W/GpL16-k0 (antibody, human IgG1, kappa)
heavy 1: not shown
heavy 2: not shown
light: B1 light
notes: Heterodimerized IgG1 (He Ab); mutation only in the GpH7-B3 chain; also called He Ab Y296W
Consider B14, for which, in assay [5], the “He/Con_2aH (relative binding activity)” value was 97.6 % of control. In addition, the “He/Con_2b (relative binding activity)” value in assay [6] is 103 % of control.

B15: GpH7-A5/GpH7-B3 variant Y300_19Q/GpL16-k0 (antibody, human IgG1, kappa)
heavy 1: not shown
heavy 2: not shown
light: B1 light
notes: as for B2
Take B15: the He/Con_3a in assay [3] was 96.3 % of GpH7-A5/GpH7-B3/GpL16-k0 (=100). Moreover, the He/Con_2b in assay [4] was 108 % of GpH7-A5/GpH7-B3/GpL16-k0 (=100).

These data come from patent publication US20180155451A1 (published 2018).
